B1: library; numbered along this chain (parent)
chain: MAAAGGARLLRAASAVLGGPAGRWLHHAGSRAGSSGLLRNRGPGGSAEASRSLSVSARARSSSEDKITVHFINRDGETLTTKGKVGDSLLDVVVENNLDIDGFGACEGTLACSTCHLIFEDHIYEKLDAITDEENDMLDLAYGLTDRSRLGCQICLTKSMDNMTVRVPETVADARQSIDVGKTS

Variants of: B1
Test: scaled log2 fold change in cell abundance, elesclomol vs control (0 = silent mean, 1 = nonsense mean) (scaled log2 ratio); higher = higher viability under elesclomol (loss of FDX1 cuproptosis function)
Settings: glucose 10 mM
Protocol: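 Deep mutational scan of full-length human FDX1: a pooled saturation-mutagenesis ORF library (every residue 2-184 mutated to all 19 amino acids plus stop, and silent codons where available) was expressed by lentivirus in FDX1-knockout ABC1 (14 days) or HEK293T (11 days) cells grown with elesclomol (ES) or DMSO control. Variant abundance came from ORF sequencing. The log2 fold change (ES vs control, mean of duplicates) was centred on the silent-variant mean (0) and scaled to the nonsense-variant mean (1). Higher values mean greater viability under ES, i.e. loss of FDX1 function in cuproptosis.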

[1] = with ABC1 FDX1 KO, elesclomol 5 nM, 14 days
[2] = with HEK293T FDX1 KO, elesclomol 40 nM, 11 days
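Also: variant abundance is its share of total variant reads in each endpoint sample, from next-generation sequencing of the integrated ORF PCR-amplified out of genomic DNA.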

Variant | scaled log2 fold change [1] | scaled log2 fold change [2]
Y142M | -0.877 | -0.0122
S54P | 0.151 | -0.0299
S54I | 0.459 | –
G33W | -0.0437 | 0.197
G33K | 0.0454 | 0.247
G33Q | -0.173 | -0.043
A49E | 0.155 | –
A49M | -0.695 | -1.02
A49P | 0.382 | 0.203
A47K | 0.89 | 0.778
G36C | -0.121 | 0.501
G36I | 0.0053 | -0.456
L156W | 1.06 | 1.36
K126C | -0.0261 | -0.165
K126V | 0.162 | 0.807
K126H | 0.0646 | 0.114
N97W | 0.133 | -0.218
T131L | -0.29 | 0.562
T131G | 0.277 | –
T131V | -0.238 | 0.525
K158R | 0.0874 | -0.484

Variant | scaled log2 fold change [1] | scaled log2 fold change [2]
K158F | 0.241 | 0.189
G108M | 0.834 | 0.77
G108V | 1.07 | 1.34
P20M | -0.56 | –
R51Q | -1.02 | -0.603
R51T | 0.0589 | 0.546
R51E | -0.316 | -0.168
L79H | -0.594 | 0.119
T78N | -0.0446 | -0.273
T78R | -0.905 | -0.932
L150H | 0.563 | -0.201
I67Y | 0.135 | -0.731
V167F | 0.518 | –
T81I | 0.266 | 0.81
T81G | 0.204 | -1.09
A32R | 0.589 | 1.44
R58K | 0.151 | -0.231
A3N | -0.349 | -0.21
A3S | 0.514 | -0.0887
S46N | 0.338 | 0.643
S46A | 0.558 | 0.128

Variant | scaled log2 fold change [1] | scaled log2 fold change [2]
S46Y | 0.737 | 0.775
S46T | 0.617 | 0.182
V171R | -0.31 | -0.328
V171N | -0.524 | 0.216
V171T | -0.214 | -0.343
E120D | 0.203 | 0.978
T109C | -0.244 | -0.121
T109Y | -0.087 | –
S177Q | 0.143 | -0.314
N135K | -0.148 | -0.129
S30N | 0.26 | -0.64
S30R | 0.119 | –
S30E | 0.181 | -0.188
S30K | 0.428 | -0.721
S113N | -0.0206 | 0.213
S113M | 0.304 | –
L25Y | 0.423 | 0.926
L25R | 0.126 | 0.222
S35E | -0.0617 | -0.644

Reference: the supplement of paper PMC12855868
